We go through eleven molecules from US20240254227A1.

One experiment has as its target murine CD300C-Fc (mouse). The experiment can be described thus: SPR (Carterra LSA), antibody immobilised, Fc fusion at 300 or 600 nM.
The target of experiment [1] is cynomolgus monkey CD300LB transiently expressed on HEK293 cells (cynomolgus monkey). The experiment can be described thus: flow cytometry, transfected HEK293, 10 ug/mL, isotype subtracted.
Experiment [2] deals with CD300A/C/D/E/G (pool of five stable Freestyle HEK cell lines expressing huCD300A, huCD300C, huCD300D, huCD300E and huCD300G). The experiment can be described thus: flow cytometry, pooled stable Freestyle HEK cells. Background: Flow cytometry measures light scatter and fluorescence of single cells or particles in a stream.
Experiment [3] concerns the target huCD300F constitutively expressed on 293 Freestyle (Freestyle HEK) cells (human) (UniProt Q8TDQ1). Kind of experiment: flow cytometry, stable Freestyle HEK cells.
For experiment [4], the target named is recombinant human CD300LB overexpressed on Jurkat cells (human) (UniProt A8K4G0). Kind of experiment: flow cytometry, stable Jurkat cells, supernatant or 10 ug/mL, isotype subtracted.
Sequence of recombinant human CD300LB overexpressed on Jurkat cells (human) (A8K4G0 18-201 limits assumed): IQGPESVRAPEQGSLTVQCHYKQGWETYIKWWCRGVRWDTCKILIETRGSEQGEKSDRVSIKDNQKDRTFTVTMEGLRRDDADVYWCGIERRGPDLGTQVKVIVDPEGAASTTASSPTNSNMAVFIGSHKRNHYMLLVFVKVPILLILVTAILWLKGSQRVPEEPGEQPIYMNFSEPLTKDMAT
The target in experiment [5] is murine CD300LB-Fc (mouse). Kind of experiment: SPR (Carterra LSA), antibody immobilised, Fc fusion at 300 or 600 nM.
Sequence of murine CD300LB-Fc (mouse) (chain, as listed by the source limits assumed): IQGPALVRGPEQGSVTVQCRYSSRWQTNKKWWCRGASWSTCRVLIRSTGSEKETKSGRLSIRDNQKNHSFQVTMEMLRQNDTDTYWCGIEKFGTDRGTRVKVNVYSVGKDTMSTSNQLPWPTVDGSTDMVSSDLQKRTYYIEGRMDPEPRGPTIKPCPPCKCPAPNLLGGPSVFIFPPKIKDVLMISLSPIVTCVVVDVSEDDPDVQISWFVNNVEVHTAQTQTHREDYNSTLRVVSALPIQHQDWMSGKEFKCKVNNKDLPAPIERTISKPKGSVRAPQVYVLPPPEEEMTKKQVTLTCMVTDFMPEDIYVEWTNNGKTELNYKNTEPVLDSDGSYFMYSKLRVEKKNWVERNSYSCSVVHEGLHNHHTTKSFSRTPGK

Sequence of cynomolgus monkey CD300LB transiently expressed on HEK293 cells (cynomolgus monkey) (chain, as listed by the source limits assumed, form in doubt): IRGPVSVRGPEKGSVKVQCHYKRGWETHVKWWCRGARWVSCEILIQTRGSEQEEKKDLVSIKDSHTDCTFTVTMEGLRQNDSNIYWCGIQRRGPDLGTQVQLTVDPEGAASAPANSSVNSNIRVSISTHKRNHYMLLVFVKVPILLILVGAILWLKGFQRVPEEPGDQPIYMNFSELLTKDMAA
Sequence of murine CD300C-Fc (mouse) (chain, as listed by the source limits assumed): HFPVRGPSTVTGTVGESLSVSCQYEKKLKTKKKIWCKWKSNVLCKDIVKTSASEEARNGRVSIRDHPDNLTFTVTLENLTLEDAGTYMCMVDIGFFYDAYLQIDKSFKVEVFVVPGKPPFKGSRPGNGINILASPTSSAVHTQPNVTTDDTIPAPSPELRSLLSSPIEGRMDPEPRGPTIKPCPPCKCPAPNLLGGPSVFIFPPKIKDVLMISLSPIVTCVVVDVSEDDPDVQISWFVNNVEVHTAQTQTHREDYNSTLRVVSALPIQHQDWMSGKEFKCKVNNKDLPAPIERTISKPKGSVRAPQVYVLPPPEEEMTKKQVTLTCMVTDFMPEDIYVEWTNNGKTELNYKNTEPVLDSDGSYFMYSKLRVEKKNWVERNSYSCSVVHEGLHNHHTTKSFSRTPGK
Sequence of huCD300F constitutively expressed on 293 Freestyle (Freestyle HEK) cells (human) (Q8TDQ1 other isoform, or with tags, fused parts or gaps): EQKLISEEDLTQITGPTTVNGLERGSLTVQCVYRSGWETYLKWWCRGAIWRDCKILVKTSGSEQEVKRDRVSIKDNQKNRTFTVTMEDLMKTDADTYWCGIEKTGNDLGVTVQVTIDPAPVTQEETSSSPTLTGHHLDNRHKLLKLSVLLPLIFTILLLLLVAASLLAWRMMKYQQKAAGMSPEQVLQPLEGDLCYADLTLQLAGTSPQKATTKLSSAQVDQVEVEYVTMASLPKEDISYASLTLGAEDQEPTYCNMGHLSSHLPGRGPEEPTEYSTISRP

B1: anti-CD300LB antibody CD-11 (antibody, V domains shown)
VH: QIQLVQSGPEVKKPGETVKISCKASGYTLTDYSMHWVMQTPGTGLKWMAWMNTETGEPTYADDFKGRFAFSLETSAGTAYLQIDNLKNEDTATYFCATYGKSYGMKYWGQGTSVTVSS
VL: DIVLTQSPPSLAVSLGQRATISCRATKSVSPYLHWYQQTPGQPPKLLIYLASNLDSGVPARFSGSGSGTDFTLNIHPVEEEDAATYYCQHNKELPPTFGGGTRLEIK
In the case of B1, the SPR binding (control subtracted) in the experiment with murine CD300C-Fc (mouse) was found to be 37.8.

B2: anti-CD300LB antibody CD-08 (antibody, V domains shown)
VH: EVQLLESGGGLVQPGGSLRLSCAASGFTFSNAWMSWVRQAPGKGLEWVSVISGSGGRTYYADSVKGRFTISRDNSKNTLYLQMNSLRAEDTAVYYCARDGTTVAPKGMDVWGQGTTVTVSS
VL: DIQMTQSPSSLSASVGDRVTITCQASQDINNYVNWYQQKPGKAPKLLIYAASNLQSGVPSRFSGSGSGTDFTLTISSLQPEDFATYYCQQSYSPPYTFGQGTKLEIK
For B2, the values for the gMFI in experiment [1] and in experiment [2] were -43.5 gMFI and 166 gMFI, respectively.

B3: anti-CD300LB antibody CD-01 (antibody, V domains shown)
VH: RVQLQQSGAELVRPGASVTLSCKASGFTFTDFEMHWVKKTPVHGLEWIGAIDPESGNTAYNQKFRGKATLTADKSSSTAYMELRYLTSEDSAVYYCTPLISGADYWGQGTTLTVSS
VL: DVVMTQSPLSLPVSLGDQASISCRSSQSLVHSDGNTYLYWYLQKPGQSPKLLIYKVSNRFSGVPDRFSGSGSGTDFTFKISRVGAEDLGVYFCSQSTHVPWTFGGGTKLEII
Regarding B3, the gMFI was 190 gMFI in experiment [1] and -21.5 gMFI in experiment [2].

B4: anti-CD300LB antibody CD-04 (antibody, V domains shown)
VH: QVQLQQSGAELVRPGASVTLSCRASGYTFTDFEMHWVKQTPLHGLEWIGAIAPETGGTAYNQKFKGKAILTADKSSSTAYVELRSLTSEDSAVYFCTRLGGMDYWGQGTSVTVSS
VL: DVVMTQTPLSLPVSLGDQASISCRSSQTLVHNNGNTYLYWYLQKPGQSPKLLIYQVSNRFFGVPDRFSGSGSGTDFTLKISRVEAEDLGLYFCSQSTHVPWTFGGGTKLEIK
Take B4: the gMFI in experiment [1] was 72.2 gMFI; in experiment [2], 52.5 gMFI; in experiment [3] it was 163 gMFI.

B5: anti-CD300LB antibody CD-15 (antibody, V domains shown)
VH: QIQLVQSGPELKKPGETVKISCQVSGYTFTDYSMHWLKQAPGKGLKWMAWINTETGESTYTDEFKGRFVFSLETSVRTAYLKINNLKNEDTATYFCGTYGSSYGMAYWGQGTSVTVSS
VL: DIVLTQSPASLPVSLGQRATISCRASKSVSTSGSSYLHWYQQKPGQPPKLLIYLASKLESGVPARFRGSGSGTDFTLNIHPVEEEDAATYYCQHNREVPPTFGGGTKLEIK
Turning to B5, in experiment [4], the gMFI stood at 22 gMFI.

B6: anti-CD300LB antibody CD-16 (antibody, V domains shown)
VH: QIQLVQSGPELKKPGETVKISCKASGYTFTDYSMHWVKQAPGKGLKWMAWINTETGEPTYADDFRGRFAFSLETSGRTAYLEINNLRNEDTATYFCVTYGSSYGMAYWGQGTSVTVSS
VL: DIVLTQSPASLAVSLGQRATISCRASKSVSRSGYSYLHWYQQKPGQPPKLLIYLASKLESGVPARFSGSGSGTDFTLNIHPVEAEDAATYYCQHNREIPPTFGGGTKLEIK
As to B6, the gMFI in experiment [4] came out at 31 gMFI.

B7: anti-CD300LB antibody CD-10 (antibody, V domains shown)
VH: QVQLQQSGPELVRPGVSVKISCKGSGYTFTDYAMHWVKQSHVRSREWIGVIGTYNGHTNYNQKFKGKATMTVDKSSSTAYLELARLTSEDSAIYYCARSGSYYYSMDYWGQGTSVTVSS
VL: QIVLTQSPAIMSASPGEKVTMTCSASSSVNYMHWYQQKSGTSPKRWIYDTSKLSSGVPARFSGSGSGTSYSLTISTMEAEDAATYYCQQWSSNPPMTFGGGTKLEIK
As for B7, in the experiment with murine CD300C-Fc (mouse), the SPR binding (control subtracted) was found to be 11.8.

B8: anti-CD300LB antibody CD-05 (antibody, V domains shown)
VH: QVQLVQSGAEVKKPGASVKVSCKASGYTFSRYYINWVRQAPGQGLEWMGWINPNSGGTNYAQKFQGRVTMTRDTSTSTVYMELSSLRSEDTAVYYCTTDQLRFGKTGPYYGMDVWGQGTTVTVSS
VL: DIQMTQSPSSLSASVGDRVTITCRASQNIGTYLNWYQQKPGKAPKLLIYAASSLQSGVPSRFSGSGSGTDFTLTISSLQPEDFATYYCQQSYSDTLTFGGGTKVEIK
As to B8, the gMFI in experiment [1] was -62.5 gMFI; in experiment [2] it was 2510 gMFI. The SPR binding (control subtracted) in experiment [5] is 3.65.

B9: anti-CD300LB antibody CD-06 (antibody, V domains shown)
VH: QVQLVQSGAEVKKPGASVKVSCKASGYTFTTYAVHWVRQAPGQGLEWMGIVNPNSGGTNYAQKFQGRVTMTRDTSTSTVYMELSSLRSEDTAVYYCARDIVPMNNFYNYYYGMDVWGQGTTVTVSS
VL: DIQMTQSPSSLSASVGDRVTITCRASQSISSYLNWYQQKPGKAPKLLIYATSTLQSGVPSRFSGSGSGTDFTLTISSLQPEDFATYYCQQSYRIPYTFGQGTKVEIK
In the case of B9, the figures for the gMFI in experiment [1] and in experiment [2] were -51 gMFI and 779 gMFI, respectively.

B10: anti-CD300LB antibody CD-07 (antibody, V domains shown)
VH: QVQLVQSGAEVKKPGASVKVSCKASGYTFTNYRMHWVRQAPGQGLEWMGWINPNSGGTIYAQKFQGRVTMTRDTSTSTVYMELSSLRSEDTAVYYCARDLDYWGQGTLVTVSS
VL: DIQMTQSPSSLSASVGDRVTITCQASQDISNYLNWYQQKPGKAPKLLIYGASSLQSGVPSRFSGSGSGTDFTLTISSLQPEDFATYYCQQSYSTPWTFGPGTKVEIK
For B10, the gMFI in experiment [1] was determined as 39 gMFI; in experiment [2] it was 42.5 gMFI.

B11: anti-CD300LB antibody CD-09 (antibody, V domains shown)
VH: QVQLVQSGAEVKKPGASVKVSCKASGYTFTTYAVHWVRQAPGQGLEWMGIINPNSGGTNYAQKFQGRVTMTRDTSTSTVYMELSSLRSEDTAVYYCARDIVPMNNFYNYYYGMDVWGQGTTVTVSS
VL: DIQMTQSPSSLSASVGDRVTITCRASQSISSYLNWYQQKPGKAPKLLIYATSTLQSGVPSRFSGSGSGTDFTLTISSLQPEDFATYYCQQSYRIPYTFGQGTKVEIK
With B11, the gMFI in experiment [1] is -19.5 gMFI; in experiment [2], -25.5 gMFI.
